Source: the DeepSol protein solubility set

Assay: soluble on expression in E. coli; label from the status in PepcDB or PDB records

Sequence | soluble on expression in E. coli
MMLVRSVFRSQLRPSVSGGLQSASCYSSLSAASAEAERTIREGPRNDWSRDEIKSVYDSPLLDLLFHGAQVHRHVHNFREVQQCTLLSIKTGGCSEDCSYCPQSSRYSTGVKAQRLMSKDAVIDAAKKAKEAGSTRFCMGAAWRDTIGRKTNFSQILEYIKEIRGMGMEVCCTLGMIEKQQALELKKAGLTAYNHNLDTSREYYPNVITTRSYDDRLETLSHVRDAGINVCSGGIIGLGEAEEDRIGLLHTLATLPSHPESVPINALLAVKGTPLEDQKPVEIWEMIRMIGTARIVMPKAMVRLSAGRVRFSMSEQALCFLAGANSIFTGEKLLTTPNNDFDADQLMFKTLGLIPKPPSFSEDDSESENCEKVASASH | not soluble
MMNNMDSIINYIYEGDYFIVTSHISPDGDNIGSTLSMYYTLKNLGKNVYYVLDDEAPLNLRFLVEGVKIYKSNEFNMKNYSLIALDCGDKMRICVSDEIKNNASKLICIDHHASNDSYGDLNYVDIDASSTCELVYNLLVRFQQIKDINIINEDIATCLYTGLVTDTGNFSYSNVHASSFEMAKNLLVLGAQKNTIIQNIYQSNSSGYYKLLGEALKGLEIFDSKVSSIVLTQDMMNRNNISFNDVDGITTYTRDIKGIEVGILFKEKKQNEIKVSFRSKNYVDVSEIAKLFGGGGHVRAAGCTIRDSIDNAKKMVLEAVLKSI | not soluble
MMNQDIEKVLISEEQIQEKVLELGAIIAEDYKNTVPLAIGVLKGAMPFMADLLKRTDTYLEMDFMAVSSYGHSTVSTGEVKILKDLDTSVEGRDILIVEDIIDSGLTLSYLVDLFKYRKAKSVKIVTLLDKPTGRKVDLKADYVGFTVPHEFVVGYGLDYKEQYRNLPYVGVLKPSVYSN | not soluble
MMTQTLLIELLTEELPPKALNNLGNHFAASVAEGLEKAQLVDGAAEFTAYASPRRLAVQVKNVKAVQADQKIVKKGPAVANAMKDGAPTKALEGFARGAGAKIEDLTIVHDGKQDVYAYEYVQIGKPLGGLLEDIINQAVKKLPIPKVMRWGSSTFTFVRPVHGLVVLHGGDIVNVSVLGLQSGNKTLGHRFLSDGEITIENADSYAAQMREQGKVVASFAERKAAIQTVLEGQARRLNATAAADEALLDEVTALVEWPVVLEAGFEEHFLAVPQECLILTMQQNQKYFPLLDQNGKLMNRFLLVSNLQTEDPSHIIQGNERVLRARLSDAEFFYKQDQKATLESRLPKLTNVVYHNKIGSQAERIERLQSIAAHIAKALGADAAAAERAARLAKADLVTEMVGEFPELQGTMGKYYARLDGETEEITEAVEQHYQPRFAGDNLPEGKIAAAVALADKLETLVGIWGIGLIPTGDKDPYALRRAALGILRMLMQYGLDVNELIQTAFNSFPQGLLNEKTPSETADFMQARLAVLLQNDYPQDIVAAVLAKQPRRLDDLTAKLQAVAAFKQLPEAAALAAANKRVQNLLKKADAELGAVNESLLQQDEEKALFAAAQGLQPKIAAAVAEGNFQTALSELASVKPQVDAFFDGVMVMAEDAAVKQNRLNLLNRLAEQMNAVADIALLGE | not soluble
MMTRKKELAIALSKLKGFKNPKVWLEQYRTPGNAASELLWLAYSLGDIEGKVVADLGAGTGVLSYGALLLGAKEVICVEVDKEAVDVLIENLGEFKGKFKVFIGDVSEFNSRVDIVIMNPPFGSQRKHADRPFLLKAFEISDVVYSIHLAKPEVRRFIEKFSWEHGFVVTHRLTTKIEIPLQFFFHRKKLERITVDIYRFSKVINSR | soluble
MMWKQAMTDVAEKTLTNIKRFNGRFPHVSEDGEHYELNNNNEWTNGFWSGILWLCYEYTNDPAFRQAAASTVRSFQQRMEQNLELDHHDIGFLYSLSSKAQWIIERDERAKQLTIEAADVLMKRWREKIELFQAWGPEGDLSNGGRIIVDCLMNLPLLFWASEVTGNPDYREAAIIHADKTRRFIVRGDDSTYHTFYFNQETGEALRGGTHQGYEDGSTWSRGQAWAIYGFAIAYRYTGNERYLETAKRTAKYFIENLPADYVAYWDFNAPITPDTKRDSSASAIASCGILELLSHLQETDPDKAFFQQSVQKQMTSLVENYASEKDAQGLIKRGSYSVRIGHAPDDYVIWGDYFYTEALMRLEKLRNGYWYEGKLEHHHHHH | soluble
MNAAVVRRTQEALGKVIRRPPLTEKLLSKPPFRYLHDIITEVIRMTGFMKGLYTDAEMKSDNVKDKDAKISFLQKAIDVVVMVSGEPLLAKPARIVAGHEPERTNELLQIIGKCCLNKLSSDDAVRRVLAGEK | soluble
MNADAPLKSYSGHHSETHKSESKKKKDKKTFEEEDDVENVKRKPAESSDDEVVVVVVKKDQKGKRGKKSKKPKKKQESSDDSSDNSDSSESSDDDKKSKKKKKKSKKDSSDSSDSSDSSDSSDDGKKKKKKKSKKDSSDDSSDSSDSSDSSDSSDDDKKKKKKSKKSKNKGSSSDSSDSSDDSSDDEKPKKKKKKSKKPKKAPKSDEEVTIKIIKKPKKKPEDLERRRHRVKKTEEHEEEKDKEEHHESNDENMEFDTRARGAPSSPKLTRRAKRSESSDDEVELQKTPEIDDNKPSRKDGDHDSDMEESEKSKKSSKKDHNHHHHHCCCGAQNEHEHTHHEEFSKTDKVVNKYHDCAKCQYKCPICT | not soluble
MNADEWMTTFRENIAQTWQQPEHYDLYIPAITWHARFAYDKEKTDRYNERPWGGGFGLSRWDEKGNWHGLYAMAFKDSWNKWEPIAGYGWESTWRPLADENFHLGLGFTAGVTARDNWNYIPLPVLLPLASVGYGPVTFQMTYIPGTYNNGNVYFAWMRFQFL | soluble
MNALSGLQTHEDSTCCNRFCRPDERSASGNSTLLRFGGFFADQTYLQVTRLMQRIHYLHQRLVIDGFVRSEEDGGVFLAFGLEHHHHHH | not soluble
MNCMWCDSTEAKESLNTVYWELPDGTKAIEIQETPCISCSSCGMDYQSDHTVKEIEDQLFLIYTKDLPKQLTYEELMGRPRLLKRNYFDF | not soluble
MNCRLGCGACCIAPSISSVIPGMPNGKAAGERCVQLSDDNLCLIFGSPERPAVCCDFEASLDVCGHSNEEALWLITNLESQTSLEHHHHHH | not soluble
MNCWMRSPRWPPTTDGSNSSQWVTPCSQMDRSVFSPTPSVPMKLFSTRTLSGTGWAVCKPVGATGVVKGLQRVRLAGLRPAHREDIAIHELVFQRDDDGAIAVCTRRLRLVERLLAKRTDEHRHTGWMGVGHIHRWGAVNECSLAIRMRWLRAPDYVYNTPRCAQLLTSESTKPNGTHGHTMTTFLLATSSVHVTAAAADYLQHRLDSAADHDIVVVAVHDPDAPSRDAGDAVNVARSRLAAFMPATETRDGAPVTEILAAVDEHDPDELLIGPHRGTDDSDGVGSMARDLLTNVDRPVIVLPLP | not soluble
MNDLTLSPIAIIHTPYKEKFSVPRQPNLVEDGVGIVELLPPYNSPEAVRGLEQFSHLWLIFQMDQIQQGKWQPTVRPPRLGGNQRVGVFASRATHRPNPLGMSKVELRQVECINGNIFLHLGAVDLVDGTPIFDIKPYIAYADSEPNAQSSFAQEKLPVKMTVEFTEQAKSAVKKREEKRPHLSRFIRQVLEQDPRPAYQQGKPSDRIYGMSLYEFNVKWRIKAGTVNCVEVIEIEKDKLEHHHHHH | soluble
MNDMRQITNLGRNIENKSFSIIDEEAGPHSFAQEEWEVVRRIIHATADFDYKNITKIHPQAIDSGIQALKKGCPIVCDVQMILSGLNPERLKVYGCKTYCFISDEDVIENAKRKNSTRAIESIQKANSFNLLNESIIVIGNAPTALLEIEKLIRQEGIKPALIVGVPVGFVSAKESKESILKLEYYNVTSIPYILTMGRKGGSTIAVAILHALLLLSSKRGERLEHHHHHH | soluble
MNEHIESYHRILEEECLSINEFESFAEAYTIVNEFIKLYNTKRIHSSTKYMPPAEFYEHLRISGETVNMRL | not soluble
MNEIIGKFAREGILIEDNAYFRLREMDDPASVSSELIVKIKSNGGKFTVLTSEMLDEFFEIDNPAEIKARGPLMVPAERDFDFEVISDTSNRSYTSGEIGDMIAYFNSRYSSLKNLLSKRPELKGHIPIADLRGGEDVVSIIGMVNDVRNTKNNHRIIELEDDTGEISVVVHNENHKLFEKSEKIVRDEVVGVHGTKKGRFVVASEIFHPGVPRIQEKEMDFSVAFISDVHIGSQTFLEDAFMKFVKWINGDFGSEEQRSLAADVKYLVVAGDIVDGIGIYPGQEKELLIRDIHEQYEEAARLFGDIRSDIKIVMIPGNHDSSRIAEPQPAIPEEYAKSLYSIRNIEFLSNPSLVSLDGVRTLIYHGRSFDDMAMSVNGLSHERSDLIMEELLEKRHLAPIYGERTPLASEIEDHLVIDEVPHVLHTGHVHINAYKKYKGVHLINSGTFQSQTEFQKIYNIVPTCGQVPVLNRGVMKLLEFSLEHHHHHH | not soluble
MNEKKLVEALKRKEDWAYEVLYREFAPKIGSIAKSFLNTDDVDDVVQDVFLRIFKGIKKFRGDSKLSTWIYRIAVNVCKDYLQKYKKRNEFLTDFQEKDNEEEIYIQPEAKENVLDEVLRSITAERVQKALEKLSPEDRLLIKLRDIDGLSYEEIASVLQKPVGTVKSRLHYARKRLGNLLKEGETVER | not soluble
MNELTGADFKSATADDNKKLFIETYGCQMNVADSEVIASVMQMAGYSVAETLEEADAVFMNTCSIRDNAEQKILNRLEFFHSLKKKKKALIVGVLGCMAERVKDDLITNHHVDLVVGPDAYLTLPELIAAVEAGEKAINVDLSTTETYRDVIPSRICGNHISGFVSIMRGCNNFCTYCIVPYTRGRERSRDVESILNEVADLVAKGYKEVTLLGQNVNSYRFEKPTGEVVTFPMLLRMVAEAAPGVRIRFTTSHPKDMSDETLEVIAQVPNVCKHIHLPVQSGSSRILKLMNRKYTREWYLDRVAAIKRIIPDCGLTTDIFSGFHSETEEDHQLSLSLMEECGYDAAFMFKYSERPGTYASKHLEDNVPEDVKVRRLNEIIALQNRLSAESNQRCIGKTYEVLVEGVSKRSRDQLFGRTEQNRVVVFDRGTHRIGDFVNVRVTEASSATLKGEEVLEHHHHHH | soluble
MNFIVIGAGNIGSGIAQNLLEDGHEVEIADKSRESLNRIRGRNPKIRTREFDVMDRSAYRMLNDYDASVSALPGSIGMQFLKNVAKMGKIVVDVSYMEEDPYDLNGIAQSAGTIIVPDMGFAPGLTNAIVGYFSADLDQIRNVKIYVGGIPEKPVPPLDYTITWSVEGLIDEYTRPVRIVRNGTEDHVPALSGIERIGVGNYADMEAFYTDGLRSLIRNIKCTGEMFEKTIRYPGHAEKMAAIRDLGYFDRIKVDGCNLTMFEISEQIFMEKLFRPDIQDVVLMKVEVSGTKLGREVTRTAEMQTGYDSSRKRTAMDMATSLPASITAEFLSSNGKITSGIVFPEILGKTQNYFEYLVNNMKKKGINVNISVK | not soluble
MNFKPIKPKKISTQIAEQIRSSILAGEFTPGEKLPPERELAEMFGVSRPSVREALNILAAAGLVESYQGGGTIVKSLMDAASGPPLSEIIKVEQERALDVIEVRKCMEAWTAYYAAQRALPDDVRKLEGIVWNMEANLNGLKPSEDLDANFHIVIARSTHNVVWLHLMQTIFEAMKEFQRSVWRAVYLTEEDHRTLFAHHKAIFEAIRDKDCERARNAMLGHLTFAEKRSSIYVNQSRQDR | not soluble
